Values of other authors, collected in patent US20250186538A1, “BIVALIRUDIN COMPOUNDS” (The General Hospital Corporation, priority 2022, published 2025).

Settings: in vivo

Question: With “D-Phe-Pro-Arg-Pro-Gly-Gly-Gly-Gly-Asn-Gly-Asp-Phe-Glu-Glu-Ile-Pro-Glu-Glu-Tyr-Leu [bival]” as the substance, how does the Half-life read?
Answer: Its Half-life is “about 20 min”.
